Test results reported in publication PMC8368726, “Granzyme A Produced by γ9δ2 T Cells Activates ER Stress Responses and ATP Production, and Protects Against Intracellular Mycobacterial Replication Independent of Enzymatic Activity” (Frontiers in Immunology, 2021).

Biological target: the molecule itself
Experiment: non-reducing SDS gel electrophoresis (silver stain and western blot); purified GzmA run under non-reducing conditions; homodimer at ~50 kDa and polymers of it

B1: Native human Granzyme A (enzyme, UniProt P12544 29-262, looked up)
chain: IIGGNEVTPHSRPYMVLLSLDRKTICAGALIAKDWVLTAAHCNLNKRSQVILGAHSITREEPTKQIMLVKKEFPYPCYDPATREGDLKLLQLMEKAKINKYVTILHLPKKGDDVKPGTMCQVAGWGRTHNSASWSDTLREVNITIIDRKVCNDRNHYNFNPVIGMNMVCAGSLRGGRDSCNGDSGSPLLCEGVFRGVTSFGLENKCGDPRGPGVYILLSKKHLNWIIMTIKGAV
notes: Granzyme A (GzmA), native human protein, commercially obtained; Some monomer at ~25 kDa is seen beside the homodimer; also called NhGzmA; native GzmA; source: bought: TheraTest (Lombard, IL)
B1: binds.
